From the supplement of paper PMC10567573 come the findings set out here.

The nature of this data set: protein stability index of a GFP-peptide fusion (GPS, HEK-293T) (PSI 1-6); higher = more stable.
Setting [1] is: treatment: DMSO, c terminus: a fixed tail appended.
Setting [2] is: treatment: MLN4924 1 uM, 8 h, c terminus: a fixed tail appended.
Setting [3] is: treatment: DMSO, c terminus: native.
The mark [4] stands for this setting: treatment: MLN4924 1 uM, 8 h, c terminus: native.

± gives the standard deviation.
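Also: 24-mer peptide tiles fused after GFP, lentivirally expressed, FACS-sorted into six equal bins by GFP/DsRed ratio, decoded by Illumina sequencing, PSI is the read-weighted mean bin number.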

Regarding SGNFERCIRLWKYALDMQQSNLEP [FEM1A], the protein stability index by setting is: under setting [1], 2.12 ± 0.12; under setting [2], 2.38 ± 0.48.

Consider SGRGTGRGGGGGGGGGAPRGRYGP [SRSF1], for which the protein stability index under setting [1] worked out at 4.79 ± 0.24 and the protein stability index under setting [2] was found to be 4.83 ± 0.15.

As for SHKGAEELALALKGNTTLQQLDLR [LRRC45], the protein stability index under setting [1] is 3.99 ± 0.18 and the protein stability index under setting [2] is 4.17 ± 0.65.

As for SIRLPLDAPLPGSKAKPKPPKQAQ [TBC1D10A], the protein stability index under setting [1] is 4.36 ± 0.09 and the protein stability index under setting [2] turned out to be 4.72 ± 0.11.

Regarding SISRGRHARTHPQTALLESSCENK [MATN2], the protein stability index was 4.87 ± 0.22 under setting [1] and 4.88 ± 0.27 under setting [2].

Turning to SKAFLLQTVDGKHQDLKYISPETM [CDC25B], the protein stability index under setting [1] is 3.22 ± 0.098 and the protein stability index under setting [2] is 3.37 ± 0.29.

In the case of SKCQRLFRSPSMPCSVIRPILKRL [CDC25B], the protein stability index was determined as 2.85 ± 0.2 under setting [1] and 2.65 ± 0.24 under setting [2].

With SKGMSIFLDILRRADKNDDGKLSF [NECAB1], the protein stability index was determined as 2.27 ± 0.12 under setting [1] and 2.33 ± 0.17 under setting [2].

For the sequence SKLVPAIQNAHKNSTGSGRGKKLM [TPRG1], the protein stability index by setting is: under setting [1], 4.6 ± 0.24; under setting [2], 4.58 ± 0.16.

Regarding SKYGRDWERYTAAVPYRLLPGIF [DHCR7], the protein stability index worked out at 2.87 ± 0.4 under setting [3] and 2.57 ± 0.46 under setting [4].

On to SLDSLDGLSLTDESDSCVSFEAPL [PSD2], for which the protein stability index was determined as 4.95 ± 0.2 under setting [1] and 4.86 ± 0.23 under setting [2].

With SLGKTNVKDDELDAMLKEASGPIN [MYL5], the protein stability index was determined as 5.14 ± 0.26 under setting [1] and 5.35 ± 0.16 under setting [2].

As for SLGYGFVNYSDPNDADKAINTLNG [ELAVL3], the protein stability index is 3.76 ± 0.22 under setting [1] and 3.98 ± 0.18 under setting [2].

SLKDQERVAEVSRVRVELQEQNGR [LRRC45] returned a protein stability index under setting [1] of 5.17 ± 0.45 and a protein stability index under setting [2] of 4.91 ± 0.26.

SLLFVVMFIPETKGCSLEQISMEL [SLC2A12] returned a protein stability index under setting [1] of 2.93 ± 0.53 and a protein stability index under setting [2] of 3.2 ± 0.13.

As to SLLRRIKGKLFTWNILKTIALGQM [SLC35F2], the protein stability index was found to be 2.31 ± 0.63 under setting [1] and 2.38 ± 0.23 under setting [2].

With SLMPLQKSISPWKSPPQLRQFLPE [DENND6A], the protein stability index amounted to 2.72 ± 0.21 under setting [1] and 2.51 ± 0.52 under setting [2].

For the sequence SLNRACHQQNKIKDLQKEQKTLQV [CEP70], the protein stability index by setting is: under setting [1], 3.53 ± 0.66; under setting [2], 3.45 ± 0.45.

As for SLPKRLCLVCGDVASGYHYGVASC [ESRRA], the protein stability index is 2.22 ± 0.28 under setting [1] and 2.43 ± 0.48 under setting [2].

In the case of SLQKLSTKLSAQSAQYSQQLQAAR [FCHSD1], the protein stability index came out at 3.34 ± 0.18 under setting [1] and 3.54 ± 0.22 under setting [2].

As to SNISRPRDNPMCLKCDLQERLLCP [M1AP], the protein stability index is, setting by setting: under setting [1], 2.87 ± 0.095; under setting [2], 3.05 ± 0.26.

On to SNSADDETDDPRRYQKYGYIGTHE [OAS1], for which the protein stability index reads like this: under setting [1], 4.99 ± 0.11; under setting [2], 4.85 ± 0.16.

In turn, SPEKEEQYIAQFTSQFLSLQCLQA [PRAME] showed a protein stability index under setting [1] of 2.84 ± 0.41 and a protein stability index under setting [2] of 2.44 ± 0.37.

For SPGSPVGEGTGSPPKWQIGEQEFE [ADD1], the protein stability index by setting is: under setting [1], 5.35 ± 0.14; under setting [2], 5.35 ± 0.25.

With SPHRKRSDDSDEDEPCAISGKWTF [DLC1], the protein stability index by setting is: under setting [1], 4.47 ± 0.22; under setting [2], 4.51 ± 0.13.

Turning to SPLLSQETAGQKPLSVHRPPTSGC [TSPAN10], the protein stability index amounted to 4.4 ± 0.17 under setting [1] and 4.46 ± 0.18 under setting [2].

In the case of SPNSTPAKTIDTSPPVDLFATASA [SNAP91], the protein stability index reads like this: under setting [1], 4.8 ± 0.18; under setting [2], 4.67 ± 0.15.

Take SPSRAPGLRQRASNKVQDSAPVET [HMOX1]: the protein stability index reads like this: under setting [1], 5.01 ± 0.27; under setting [2], 5.22 ± 0.2.

Take SPSVMRLVHTQEPGEWLELLLEPG [ALKBH7]: the protein stability index stood at 2.83 ± 0.23 under setting [1] and 3 ± 0.24 under setting [2].

As for SPTDIQDSSIIRTTQDLFAINRDT [RHOBTB3], the protein stability index runs as follows: under setting [1], 4.47 ± 0.15; under setting [2], 4.67 ± 0.44.

Consider SPTFPALGIGMDSCVIPLRHGGLS [SEPHS2], for which the protein stability index by setting is: under setting [1], 2.98 ± 0.15; under setting [2], 2.98 ± 0.29.

For SQVSMWDQRWQDHQPLLPITDVP [APBB1IP], the protein stability index was determined as 2.63 ± 0.55 under setting [3] and 3.22 ± 0.51 under setting [4].

In turn, SRAGGPTTPLSPTRLSRLQEKEEL [LMNB1] had a protein stability index under setting [1] of 5.15 ± 0.37 and a protein stability index under setting [2] of 5.36 ± 0.15.

Regarding SRAPCKVQGLEGIKMAMVACGDAF [NEK8], the protein stability index worked out at 2.27 ± 0.38 under setting [1] and 2.25 ± 0.27 under setting [2].

Regarding SRSPLKIVKKPKSMQCKVILLDGS [EPB41L3], the protein stability index under setting [1] amounted to 2.52 ± 0.081 and the protein stability index under setting [2] stood at 2.51 ± 0.29.

For the sequence SSFFTCNQKCQLRLLKTLETSRSH [ATP23], the protein stability index stood at 2.44 ± 0.31 under setting [1] and 2.58 ± 0.33 under setting [2].

With SSGKVLPKWGWEQLEVTCTPYLKE [POMT2], the protein stability index runs as follows: under setting [1], 2.64 ± 0.33; under setting [2], 2.67 ± 0.33.

Consider SSLVWLFSQLYLYSFISLFIYMVL [MCOLN1], for which the protein stability index turned out to be 3.02 ± 0.19 under setting [1] and 3.03 ± 0.68 under setting [2].

In turn, SSQDRMFETMAIEIEQLLARLTGV [GOSR1] came in with a protein stability index under setting [1] of 2.52 ± 0.24 and a protein stability index under setting [2] of 2.62 ± 0.44.

SSRSSEESSSDSGSSDSEEERATR [BRD3]: the protein stability index is, setting by setting: under setting [1], 5.06 ± 0.33; under setting [2], 5.08 ± 0.2.

For the sequence SSTLVRPIRSRRALPPLRTRSKSD [FAM189A2], the protein stability index came out at 4.65 ± 0.31 under setting [1] and 4.6 ± 0.084 under setting [2].

As to STAKKEDINLSVRKLLNRHNIVFG [TRIP13], the protein stability index by setting is: under setting [1], 2.5 ± 0.27; under setting [2], 2.61 ± 0.24.

In the case of STESDKPTTGRVYESDSSNHCMLS [C18orf25], the protein stability index is, setting by setting: under setting [1], 4.88 ± 0.2; under setting [2], 4.89 ± 0.32.

Turning to STKPSGSPLEEKHDQCKCENLIMF [MATN2], the protein stability index came out at 3.3 ± 0.15 under setting [1] and 3.41 ± 0.099 under setting [2].

For the sequence STTTTTHITKTVKGGISETRIEKR [EPB41L3], the protein stability index reads like this: under setting [1], 4.86 ± 0.2; under setting [2], 5.01 ± 0.21.

On to STWLILHHKVYDLTKFLEEHPGGE [CYB5A], for which the protein stability index came out at 2.17 ± 0.29 under setting [1] and 2.21 ± 0.32 under setting [2].

SVEAGGSVHFDGETIEGAPPLWAA [FEM1A]: the protein stability index is, setting by setting: under setting [1], 4.09 ± 0.15; under setting [2], 4.12 ± 0.48.

In turn, SVFSARDRDPNSLLISCAVSYRGA [TNXB] displayed a protein stability index under setting [1] of 2.4 ± 0.22 and a protein stability index under setting [2] of 2.06 ± 0.16.

In the case of SVLEQLELQEKQKNEKLISLQEQL [TAF7L], the protein stability index runs as follows: under setting [1], 4.24 ± 0.25; under setting [2], 4.19 ± 0.3.

Sequence SVRRTRSKIGFGILLSKEPDGVWA [SMAD6] yielded a protein stability index under setting [1] of 2.18 ± 0.12 and a protein stability index under setting [2] of 2.3 ± 0.12.

Take SWEVVRNPLIASSFSLVKLVLRRQ [C22orf31]: the protein stability index by setting is: under setting [1], 2.52 ± 0.53; under setting [2], 2.21 ± 0.28.

As to SWREAKVSWFGSPTTSFLSISKLS [PWWP2B], the protein stability index reads like this: under setting [1], 2.15 ± 0.46; under setting [2], 2.44 ± 0.43.

For SWVTDMCKVGASSDPCGQLRPTLL [PNLIPRP1], the protein stability index reads like this: under setting [1], 2.14 ± 0.38; under setting [2], 2.34 ± 0.41.

For the sequence SYAFPKEFPYRMNHILECEFYLLE [CCNC], the protein stability index reads like this: under setting [1], 2.24 ± 0.57; under setting [2], 2.7 ± 1.1.

As to TAEMARVLTDSNHVPLQRLSLLVH [FBXO33], the protein stability index reads like this: under setting [1], 2.83 ± 0.39; under setting [2], 2.79 ± 0.096.

Regarding TALKKWMFLQLVPSWNGSLKQLLT [GMCL1], the protein stability index is 2.74 ± 0.56 under setting [1] and 2.43 ± 0.43 under setting [2].

Consider TASSSYGKGEGPIWLDNLHCTGNE [LOXL2], for which the protein stability index worked out at 3.91 ± 0.16 under setting [1] and 3.91 ± 0.25 under setting [2].

For the sequence TATTAPPALDIFGDLFESTPEVAA [SNAP91], the protein stability index reads like this: under setting [1], 4.62 ± 0.29; under setting [2], 4.71 ± 0.2.

On to TCSSCLLRAPTISDLLNDQDLLDV [EDARADD], for which the protein stability index is, setting by setting: under setting [1], 2.57 ± 0.29; under setting [2], 2.56 ± 0.43.

Regarding TDGSVLAAGTHDGSVYFWATPRQV [WSB1], the protein stability index runs as follows: under setting [1], 2.9 ± 0.18; under setting [2], 2.89 ± 0.37.

Regarding TEEEDRIICEAHKVLGNRWAEIAK [MYBL2], the protein stability index worked out at 3.85 ± 0.1 under setting [1] and 3.92 ± 0.46 under setting [2].

TEGFTSGRHYWEVEVGDKTHWAVG [TRIM39] showed a protein stability index under setting [1] of 2.85 ± 0.44 and a protein stability index under setting [2] of 2.93 ± 1.1.

Turning to TERLSHQITSRVVSAATQLRHFFL [RTN2], the protein stability index amounted to 4.1 ± 0.17 under setting [1] and 4.08 ± 0.14 under setting [2].

Consider TETEATNSLITAPGEFSDASMSPD [SMAD6], for which the protein stability index reads like this: under setting [1], 5.42 ± 0.2; under setting [2], 5.28 ± 0.37.

Consider TFDIDPMVVTDCIQVDPPERPPPP [MCOLN1], for which the protein stability index worked out at 4.69 ± 0.29 under setting [1] and 4.89 ± 0.35 under setting [2].

Regarding TFGDHHKDRRFAYGRSDVVVLCFS [RHOBTB1], the protein stability index reads like this: under setting [1], 2.38 ± 0.53; under setting [2], 2.43 ± 0.55.

Turning to TFGNSTLALGPGESLPHRLSCLGQ [PLAGL1], the protein stability index was 3.19 ± 0.18 under setting [1] and 3.29 ± 0.18 under setting [2].

As for TFLPDNFSPAKPKPSKELKPLLGS [MYORG], the protein stability index amounted to 3.52 ± 0.088 under setting [1] and 3.69 ± 0.28 under setting [2].

Turning to TGELETLKERCAQDACQAQAREKE [CCDC89], the protein stability index reads like this: under setting [1], 5.46 ± 0.31; under setting [2], 5.39 ± 0.2.

In turn, TGNSLNEPEEPSEIPERRDSGVGA [DLC1] yielded a protein stability index under setting [1] of 5.58 ± 0.19 and a protein stability index under setting [2] of 5.59 ± 0.26.

Regarding TGTKKVTRILDGGNPFLDVPQALS [PSD2], the protein stability index by setting is: under setting [1], 3.24 ± 0.36; under setting [2], 3.4 ± 0.12.

As to TGTPLVAGSPIRHENAVQGSAVEV [ISL2], the protein stability index was determined as 4.48 ± 0.22 under setting [1] and 4.45 ± 0.18 under setting [2].
